# Test results from patent publication US9115185.
# T1: HLA-DR3 (DRB*0301), purified from B-lymphoblastic cell line HAR (human)
# T1 chain: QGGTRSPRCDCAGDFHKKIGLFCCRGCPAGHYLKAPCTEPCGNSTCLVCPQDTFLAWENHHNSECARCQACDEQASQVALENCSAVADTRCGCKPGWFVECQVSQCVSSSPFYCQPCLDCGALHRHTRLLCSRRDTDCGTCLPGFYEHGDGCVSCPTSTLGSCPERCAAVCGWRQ
# Molecular target: HLA-DR7 (DRB1*0701), purified from B-lymphoblastic cell line Pitout (human)
# Assay: competition with fluorescent Ii 80-103 on purified HLA-DR7
row,Binder,IC50 [µM]
1,"MHGDTPTLHEYMLDLQPETTDL (modifications not checked) [HPV16 E7 peptide 1-22, P03129 1-22]",7
2,"HYNIVTFCCKCDSTLRLCVQST (modifications not checked) [HPV16 E7 peptide 51-72, P03129 51-72]",11
3,"RTLEDLLMGTLGIVCPICSQKP (modifications not checked) [HPV16 E7 peptide 77-98, P03129 77-98]",0.9

# Molecular target: HLA-DR1 (DRB*0101), purified from B-lymphoblastic cell line LG2.1 (human)
# Assay: competition with fluorescent HA 308-319 on purified HLA-DR1
row,Binder,IC50 [µM]
1,"PAGQAEPDRAHYNIVTFCCKCD (modifications not checked) [HPV16 E7 peptide 41-62, P03129 41-62]",7.4
2,"HYNIVTFCCKCDSTLRLCVQST (modifications not checked) [HPV16 E7 peptide 51-72, P03129 51-72]",70
3,"STHVDIRTLEDLLMGTLGIVCP (modifications not checked) [HPV16 E7 peptide 71-92, P03129 71-92]",12
4,"RTLEDLLMGTLGIVCPICSQKP (modifications not checked) [HPV16 E7 peptide 77-98, P03129 77-98]",46

# Molecular target: HLA-DR4 (DRB*0401), purified from B-lymphoblastic cell line BSM (human)
# Assay: competition with fluorescent HA308-319 Y→F on purified HLA-DR4
row,Binder,IC50 [µM]
1,"MHGDTPTLHEYMLDLQPETTDL (modifications not checked) [HPV16 E7 peptide 1-22, P03129 1-22]",30
2,"PAGQAEPDRAHYNIVTFCCKCD (modifications not checked) [HPV16 E7 peptide 41-62, P03129 41-62]",38
3,LRYRFKKHCTLYTAVSSTWHWTGHNVKHKS (modifications not checked) [HPV16 E2 peptide 301-330],10
4,AIVTLTYDSEWQRDQFLSQVKIPKTITVSTGFMSI (modifications not checked) [HPV16 E2 peptide 331-365],15

# Molecular target: T1, HLA-DR3 (DRB*0301), purified from …
# Assay: competition with fluorescent hsp65 3-13 on purified HLA-DR3
row,Binder,IC50 [µM]
1,"MHGDTPTLHEYMLDLQPETTDL (modifications not checked) [HPV16 E7 peptide 1-22, P03129 1-22]",0.8
2,"YMLDLQPETTDLYCYEQLNDSS (modifications not checked) [HPV16 E7 peptide 11-32, P03129 11-32]",50
3,"PAGQAEPDRAHYNIVTFCCKCD (modifications not checked) [HPV16 E7 peptide 41-62, P03129 41-62]",55
4,"HYNIVTFCCKCDSTLRLCVQST (modifications not checked) [HPV16 E7 peptide 51-72, P03129 51-72]",50
5,"CDSTLRLCVQSTHVDIRTLEDL (modifications not checked) [HPV16 E7 peptide 61-82, P03129 61-82]",65
6,FNSSHKGRINCNSNTTPIVHLKGDANTLKC (modifications not checked) [HPV16 E2 peptide 271-300],37
7,SSTWHWTGHNVKHKSAIVTLTYDSEWQRDQ (modifications not checked) [HPV16 E2 peptide 316-345],30
8,AIVTLTYDSEWQRDQFLSQVKIPKTITVSTGFMSI (modifications not checked) [HPV16 E2 peptide 331-365],10

# Molecular target: HLA-DR2 (DRB1*0201 [sic]), purified from B-lymphoblastic cell line IWB (human)
# Assay: competition with fluorescent HA 308-319 on purified HLA-DR2
row,Binder,IC50 [µM]
1,"MHGDTPTLHEYMLDLQPETTDL (modifications not checked) [HPV16 E7 peptide 1-22, P03129 1-22]",10
2,"DLYCYEQLNDSSEEEDEIDGPA (modifications not checked) [HPV16 E7 peptide 21-42, P03129 21-42]",12
3,"PAGQAEPDRAHYNIVTFCCKCD (modifications not checked) [HPV16 E7 peptide 41-62, P03129 41-62]",50
4,"CDSTLRLCVQSTHVDIRTLEDL (modifications not checked) [HPV16 E7 peptide 61-82, P03129 61-82]",15
5,"STHVDIRTLEDLLMGTLGIVCP (modifications not checked) [HPV16 E7 peptide 71-92, P03129 71-92]",2
6,"RTLEDLLMGTLGIVCPICSQKP (modifications not checked) [HPV16 E7 peptide 77-98, P03129 77-98]",22
